How the values were obtained:
[1] = molecular target: recombinant BB0323 (rBB0323) (Borrelia burgdorferi) (UniProt O51302); experiment: MST; 10 nM target protein labelled with Red-tris-NTA dye; 12-point 1:1 serial dilution of the ligand from 20 µM; PBS + 0.05% Tween-20, pH 7.4; 40% MST power, 10% LED power; TJump analysis, KD fit model of 1:1 stoichiometry; three biological replicates
[2] = molecular target: recombinant wild-type BB0238 (rBB0238^WT) (Borrelia burgdorferi B31) (UniProt O51254); experiment: as above
[3] = molecular target: recombinant BB0238 P65A (rP65A) (Borrelia burgdorferi B31); experiment: SEC; analytical size exclusion chromatography on a calibrated Superose 12 column; apparent molecular masses from a standard curve
[4] = molecular target: recombinant BB0238 Y37A (rY37A) (Borrelia burgdorferi B31); experiment: as above
[5] = molecular target: recombinant BB0238 P65A (rP65A) (Borrelia burgdorferi B31); experiment: MST; 10 nM target protein labelled with Red-tris-NTA dye; 12-point 1:1 serial dilution of the ligand from 20 µM; PBS + 0.05% Tween-20, pH 7.4; 40% MST power, 10% LED power; TJump analysis, KD fit model of 1:1 stoichiometry; three biological replicates
[6] = molecular target: recombinant BB0238 Y37A (rY37A) (Borrelia burgdorferi B31); experiment: as above
[7] = molecular target: the molecule itself; experiment: SEC; analytical size exclusion chromatography on a calibrated Superose 12 column; apparent molecular masses from a standard curve
[8] = molecular target: T1, recombinant BB0323 (rBB0323) (Borrelia burgdorferi, UniProt O51302 1-377, labelled with NanoTemper Red-tris-NTA dye (only in the MST with BB0108)); experiment: MST; 10 nM target protein labelled with Red-tris-NTA dye; 12-point 1:1 serial dilution of the ligand from 20 µM; PBS + 0.05% Tween-20, pH 7.4; 40% MST power, 10% LED power; TJump analysis, KD fit model of 1:1 stoichiometry; three biological replicates; settings: both partners purified
T1 sequence: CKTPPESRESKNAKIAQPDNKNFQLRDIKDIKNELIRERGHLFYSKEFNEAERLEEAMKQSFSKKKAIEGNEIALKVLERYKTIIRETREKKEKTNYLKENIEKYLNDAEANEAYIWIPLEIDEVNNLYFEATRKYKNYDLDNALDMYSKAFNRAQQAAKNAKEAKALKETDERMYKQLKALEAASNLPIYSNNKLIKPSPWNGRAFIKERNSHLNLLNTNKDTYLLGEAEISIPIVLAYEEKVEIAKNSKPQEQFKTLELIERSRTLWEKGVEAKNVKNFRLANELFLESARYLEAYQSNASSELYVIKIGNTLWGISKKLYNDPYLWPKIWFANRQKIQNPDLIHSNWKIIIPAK

recombinant BB0108 (enzyme)
Kd [1]: 2330 nM
Kd [2]: 1890 nM

recombinant BB0238 P65A (rP65A) (natural protein)
stoichiometry N [3]: 2

recombinant BB0238 Y37A (rY37A) (natural protein)
stoichiometry N [4]: 2

recombinant BB0323 (rBB0323) (from UniProt O51302 1-377) (natural protein)
Kd [5]: 702 nM
Kd [6]: 658 nM

B1: recombinant wild-type BB0238 (rBB0238^WT) (natural protein)
chain: SSYIDKQKELAIFYYEVGQRYINVGKIKKGKLFQAKALKIYPDLKKGFDIKLAVKELDARIKDDNPKVVMLEDIKLEEIPGIVHEKIEINDFTNAPKIEYIAQRERSKNQDKIIKFQFGKFARALISRNFDLFDSVIADKVNVMGQFESKNDFISTLSSASSKADADELEYLSVDDYYDLKSLKISKSNDTSFAVNVNAKKNDVTKNFPFWKERQTLIFTTEDDNNWFLSSIN
modifications: labelled with NanoTemper Red-tris-NTA dye (in MST only)
stoichiometry N [7]: 2
Kd [8]: 1000 nM
